Source: PMC6949489, “Glutathione peroxidase 8 negatively regulates caspase‐4/11 to protect against colitis” (EMBO Molecular Medicine, 2019)

Target: the molecule itself
Assay: native gel or EMSA; blue native PAGE (3-12%) and immunoblot; purified caspase-4 (C258S) incubated with or without oxidized GPx8 30 min at 4°C, then with different amounts of LPS 30 min at 37°C; LPS-induced oligomerization

B1: FLAG-tagged human caspase-4 (C258S) protease-deficient mutant (natural protein, UniProt P49662 1-377, looked up)
chain: MAEGNHRKKPLKVLESLGKDFLTGVLDNLVEQNVLNWKEEEKKKYYDAKTEDKVRVMADSMQEKQRMAGQMLLQTFFNIDQISPNKKAHPNMEAGPPESGESTDALKLCPHEEFLRLCKERAEEIYPIKERNNRTRLALIICNTEFDHLPPRNGADFDITGMKELLEGLDYSVDVEENLTARDMESALRAFATRPEHKSSDSTFLVLMSHGILEGICGTVHDEKKPDVLLYDTIFQIFNNRNCLSLKDKPKVIIVQASRGANRGELWVRDSPASLEVASSQSSENLEEDAVYKTHVEKDFIAFCSSTPHNVSWRDSTMGSIFITQLITCFQKYSWCCHLEEVFRKVQQSFETPRAKAQMPTIERLSMTRYFYLFPGN
notes: human caspase-4 with the protease-deficient mutation C258S; also called Casp4C258S; source: 293T, transfected, in lysate
Does B1 bind?
Result: binds
